# According to patent US20040106569:
# Changes are numbered by the printed parent chain. Marks after values point to notes of the source that are not given here.
# B1: full length PKNbeta KE588 mutant (protein)
# chain: MEEGAPRQPGPSQWPPEDEKEVIRRAIQKELKIKEGVENLRRVATDRRHLGHVQQLLRSSNRRLEQLHGELRELHARILLPGPGPGPAEPVASGPRPWAEQLRARHLEALRRQLHVELKVKQGAENMTHTCASGTPKERKLLAAAQQMLRDSQLKVALLRMKISSLEASGSPEPGPELLAEELQHRLHVEAAVAEGAKNVVKLLSSRRTQDRKALAEAQAQLQESSQKLDLLRLALEQLLEQLPPAHPLRSRVTRELRAAVPGYPQPSGTPVKPTALTGTLQVRLLGCEQLLTAVPGRSPAAALASSPSEGWLRTKAKHQRGRGELASEVLAVLKVDNRVVGQTGWGQVAEQSWDQTFVIPLERARELEIGVHWRDWRQLCGVAFLRLEDFLDNACHQLSLSLVPQGLLFAQVTFCDPVIERRPRLQRQERIFSKRRGQDFLRRSQMNLGMAAWGRLVMNLLPPCSSPSTISPPKGCPRTPTTLREASDPATPSNFLPKKTPLGEEMTPPPKPPRLYLPQEPTSEETPRTKRPHMEPRTRRGPSPPASPTRKPPRLQDFRCLAVLGRGHFGKVLLVQFKGTGKYYAIEALKKQEVLSRDEIESLYCEKRILEAVGCTGHPFLLSLLVCFQTSSHARFVTEFVPGGDLMMQIHEDVFPEPQARFYVACVVLGLQFLHEKKIIYRDLKLDNLLLDAQGFLKIADFGLCKEGIGFGDRTSTFCGTPEFLAPEVLTQEAYTQAVDWWALGVLLYEMLVGECPFPGDTEEEVFDCIVNMDAPYPGFLSVQGLEFIQKLLQKCPEKRLGAGEQDAEEIKVQPFFRTTNWQALLARTIQPPFVPTLCGPADLRYFEGEFTGLPPALTPPAPHSLLTARQQAAFRDFDFVSERFLEP
# B2: full length PKNbeta with the TA mutation at amino acid 718 (protein)
# chain: B1 chain with E588K, T718A
# B3: full length wildtype PKNbeta molecule (889 amino acids) (protein)
# chain: B1 chain with E588K
# B4: PKNbeta deltaN comprising amino acids 288-889 (protein)
# chain: CEQLLTAVPGRSPAAALASSPSEGWLRTKAKHQRGRGELASEVLAVLKVDNRVVGQTGWGQVAEQSWDQTFVIPLERARELEIGVHWRDWRQLCGVAFLRLEDFLDNACHQLSLSLVPQGLLFAQVTFCDPVIERRPRLQRQERIFSKRRGQDFLRRSQMNLGMAAWGRLVMNLLPPCSSPSTISPPKGCPRTPTTLREASDPATPSNFLPKKTPLGEEMTPPPKPPRLYLPQEPTSEETPRTKRPHMEPRTRRGPSPPASPTRKPPRLQDFRCLAVLGRGHFGKVLLVQFKGTGKYYAIKALKKQEVLSRDEIESLYCEKRILEAVGCTGHPFLLSLLVCFQTSSHARFVTEFVPGGDLMMQIHEDVFPEPQARFYVACVVLGLQFLHEKKIIYRDLKLDNLLLDAQGFLKIADFGLCKEGIGFGDRTSTFCGTPEFLAPEVLTQEAYTQAVDWWALGVLLYEMLVGECPFPGDTEEEVFDCIVNMDAPYPGFLSVQGLEFIQKLLQKCPEKRLGAGEQDAEEIKVQPFFRTTNWQALLARTIQPPFVPTLCGPADLRYFEGEFTGLPPALTPPAPHSLLTARQQAAFRDFDFVSERFLEP
# Legend:
# [1] = biological target: myelin basic protein
# [2] = biological target: GST-GSK3 fusion protein (Cell Signaling Technology)
Protein,"radioactive in vitro kinase assay, 32P incorporation by autoradiography (FIG. 11B) [1]",non-radioactive in vitro kinase assay (FIG. 11A) [2],Activity (phosphorylation of MPB) [1],"non-radioactive in vitro kinase assay, phosphorylated substrate detected by Western blot [2]"
B1,background activity of unspecific kinases (FIG. 11B),no (FIG. 11A) or background activity of unspecific kinases (FIG. 11B) were detected with the full length KE and full length TA mutatant proteinss,–,–
B2,background activity of unspecific kinases (FIG. 11B),no (FIG. 11A) or background activity of unspecific kinases (FIG. 11B) were detected with the full length KE and full length TA mutatant proteinss,–,–
B3,the full length wildtype protein kinase N beta as well as the kinase domain show activity,–,++*,Only the full length wildtype protein kinase N beta or the kinase domain as defined in example 9 were suitable to phosphorylate the substrate
B4,–,–,-*,–
